According to the DeepSol protein solubility set:

Assay: soluble on expression in E. coli; label from the status in PepcDB or PDB records

Row | Sequence | soluble on expression in E. coli
1 | MGSDKIHHHHHHMDLITKQDGTTLHYSTMGQGYPVVLVHTAFDNYAVFNDLAKVLAKSFQVVLIDLRGHGYSDKPRNIEFYDFADDIKFLLDAIYIDEAAFIGHEMGALIAADMSVRNPGYISSITLVNPTSIEGELPEERLFRKYAHKIRNWEDDKQEKFLDKRRYYKARKMNKFLKHVVDTNSISTKEEIQAVKDVFKSEGIADVFKHVQVPTLIVAGEHGERTTTLEAKEVADLIQHCEFNVYQHSSAYPFVEEQAQFTQETTNFIQQHAPK | not soluble
2 | MGSDKIHHHHHHMDMIVTSKKSSRNANSGCAIHCNDCSMSELCIPFTLNANELEELDNIIERKKPVQKGDKLFQSGDGLKSLYAIRSGTIKSYTITQQGDEQITGFHLAGDVIGFDAIHKQAHQSFAEALETSMICEIPFDTLDSLAGTMPKLRQQIMRLMSHEIISDQEMILLLSKKNAEERLAAFIAKLANRFANRGFSPNEFRLSMTRGDIGNYLGLTVETISRLLGRFQKAQMIAVNGKYITIVDHQALNTLADHTEQ | not soluble
3 | MGSDKIHHHHHHMDNLVDVFCDVDDFCAVFMPQWKKQCVTDGTRKRQRSSRMDMSEIMTIIILFHTSHHRDFKNYYTGYLARFFKSDFPHLLSYTRFLELMPTAVVPLCSYFSSIRSLPTGIEFVDSTSVKVCHNLRIPRHKTLSGLARRGKGTMGWFYGFKLHLIVNHKGGIVAAKITPANTHDTKPVSGMVVNAMDKLYADKGYISKALASELLEQGVTLVNNVRKNMKKKVLSLWDRAMLSRRFIIETINDQLKNISQIEHSRHRSVHGFMLNMIGGLIAYQLKESKPQLNITDVDFNAISVMA | not soluble
4 | MGSDKIHHHHHHMDQQKKIQILKDLVNIDSTNGHEEQVANYLQKLLAEHGIESEKVQYDLDRASLVSEIGSSNEKVLAFSGHMDVVDAGDVSKWKFPPFEATEHEGKLYGRGATDMKSGLAAMVIAMIELHEEKQKLNGKIRLLATVGEEIGELGAEQLTQKGYADDLDGLIIGEPSGHRIVYAHKGSINYTVKSTGKNAHSSMPEFGVNAIDNLLLFYNEVEKFVKSIDATNEILGDFIHNVTVIDGGNQVNSIPEKAQLQGNIRSIPEMDNETVKQVLVKIINKLNKQENVNLELIFDYDKQPVFSDKNSDLVHIAKSVASDIVKEEIPLLGISGTTDAAEFTKAKKEFPVIIFGPGNETPHQVNENVSIGNYLEMVDVYKRIATEFLS | not soluble
5 | MGSDKIHHHHHHMDRSERLIQLISEEGIDAFLIMNIENSARASSVYFSGFTGSFSIILISENTRLLITDSRYTVQAKQETDFEVREVKGGDFIDVLKKTVNDLKIKTIALEEERVSLSLFRRISSAFGDRKFIGIDDEVKQMRMVKDEGEIEKIKQAIEISERAFLETVQQIRAGMTEKEIAALLEYTMRKEGAEGVAFDTIVASGCRSALPHGKASDKVVERGDVIVIDFGATYENYCADITRVVSIGEPSDEVKEVHSIVLEAQERALKIAKAGVTGKLLDSVAREFIREKGYGEFFGHSLGHGIGLEVHEGPAISFRNDSPLPENVVFTVEPGIYLEGKFGIRIEEDVVLKEQGCEILTTLPRSIFVV | not soluble
6 | MGSDKIHHHHHHMDRWTQLQLFVLTADLGSLSKAAEQLDMSNAAASRTLSSLEERLGARLIERTTRRMWLTDAGREYHRRCTAVIAELAEADAIASEEVVNPRGVLRVTSSVSFAMMHLAPALPEFLKRYPNLTVQITATNQYQNFIESGIDIAIRTKEHEGDSCITIRRLAETRRVLAASPAYLATHGRPQKPEDLAQHNMLVYNLAVDPYLLHLRRGKEERNIAIASALDSNEGQVIVAAGRAGLGIVVQPLYIIHDDIVSGRLVPVLEDWQLPRLTINLAYQSRRYQPAKIRVFTDFLIERVKNLNLEERWMTFAA | not soluble
7 | MGSDKIHHHHHHMDSLLFGISGLPNRNSNKKFTYKTGIEYLREIGLDAMELPFVRSVNITDKNKNEVLDTKLKNDFYLSAHGSYFINLNADEEEKIEKSLERIIKGAEGLKKVQGKSLIFHPGFYLKDSKEETFETIKENLLRLPDLGVDYRLETTGKGTQFGSLEENVALCKAVDTCKLCIDFSHIHARYNGSLKSYDDFARILNYVGNELGDEGLNDMHIHLSGINYTAKGERNHLPFEESDFNYKDCLKAFRDFDIKGCVICESPVLEHDALLLKNYYETL | not soluble
8 | MGSDKIHHHHHHMDTLQKTIHNSEYPVVCRSCEARHGGLCSTLTPQQLCDLNRHSSRKKLEAGNELLGQGELVTSYGNILNGVVKLSKMMSDGRQQIVGLQFAPDFLGRPFMAESKMTAEAATDVEICLFPRRIVDRMVTEVPDMERKLHSQSLKELDEARDWMLTLGRKSAQEKVASFLYMIATHIDPENDDKSCFDLPLSRADIADFLGLTIETVSRQMTKLRKEGTIRIENNRHITVPDLDVLSEAAGND | not soluble
9 | MGSDKIHHHHHHMDVIQLSNDGRCRWLEKQVMNKIFPQAIRSAKIKDIPTQYMIIDWISNDNGKVGVDLKWFKKLGVPYVKTYNDLPEGNDFVVVNTGYDSIVHEEKVLREKGVEILDKPCPFVRKLRKEFEKIDDSYQYVLLCESNHIIIKNFATIFPRDMILIQMGNYKEKLLEQSNGKPMMFISYVTFLKKHSIQVFDFINKTFPGKDHKMVDTQCMWAAGRLSPIDEIRNMSEDILKEVRYALLIGSPGSTNKSLMSLHETIIDKGLEVINIGSLRDFLDFRRKHKKEKVLLVKSPIPNQAEKPILAFLRHGYLYAYYTLWRER | not soluble
10 | MGSDKIHHHHHHMDVSITQTSADKIKAGKSGLLLISDNYDAFAARVLAARGAARTLDLMYYLWHDDHTGRLLLQEVVRAAQRGVRVRMLLDDVNPRKSDAAYLALSNHPNIELKLFNPSGIRARGLMRGAEVLLRLFALTRRMHNKAWIADDNIAIVGGRNVGDAYFDAAETNFRDLDMLLLGPAVQQTAQIFQTFWVCQDAKPIAELGAAAPGSHAPYFEGREEKTESTLLSGIRDKGSIAEFISASSNVHWVERVRVISDPPEKVRGWRPRSWLMKELLPIIQSARKRVEIVSPYFIPGKKGSKILGDLVDDGVQVAVLTNSLAATDVAAVHGAYANYRKRLLRMGVQLFELQPFSRQPKISVFGSKGASLHTKAFSVDNRIGFVGSFNFDPRSVSLNSEMGVLFEDENLVAELRHRFKSEIAPEASYRLELKNEVLRWHGSDEGRLQTYTREPEAAWFRRILAALVRHLPIESQL | not soluble
11 | MGSDKIHHHHHHMDVTMGYFTIPKGPGDSTDARWYNAPGGRSIFLRPDNKGTTRAVLTLQAPIREAPESAQEQKRWLKERFADAGWEAPRVLDGLEDATDLYFDLLRQVRMKRWHKGRIALTGDAAWCATPLSGIGTTLAIVGAYVLAGELSKTHDIAQAFKCYENIMRPFVEKGQNVPKFGPRLMHPHSRLGVSFQRSALRFVSKPGIQKVLTKVAMPAADKVDLPDYQYHASS | not soluble
12 | MGSDKIHHHHHHMDYRMCWLEYRGLPADVAGKLKDWFSSVSILEPGSSVLKDEIRRFSERSIGITPRFYSRPLKKEKYIMVGRLESLPIKLDVNLGEEGFMLRTIEWNGSKILLVTGETKKALVYGIFDLMKRIRLGEDIEKMNVLAKPKAKFRMLNHWDNLDGTIERGYAGNSIFFKDNRIIINQRTKDYARLLASIGINGVVINNVNVKKREVYLIDSIYLKKLKKLADIFREYGIKIYLSINFASPVYLGGLDTADPLDERVARWWREKARGIYDYIPDFGGFLVKADSEFNPGPHMFGRTHAEGANMLARALAPFGGVVIWRAFVYNCLQDWRDYKTDRAKAAYDNFKPLDGQFDDNVIIQIKYGPMDFQVREPVNPLFGGMEKTNQILELQITQEYTGQQIHLCFLGTLWKEILEFDTFAKGEGSYVKRIVDGTLFDRENNGFAGVSNVGDSVNWTGHDLAQANLYAFGRLAWNPDEEIERIVEEWIKLTFGDDEKVLENVSYMLMKSHRTYEKYTTPFGLGWMVNPGHHYGPNPEGYEYSKWGTYHRANWEAIGVDRTSRGTGYTLQYHSPWKEIYDDINTCPEDLLLFFHRVRYDHRLKSGKTLLQTMYDLHFEGVEEVEEFIKKWEELKDRVSPDIFERVKERLHMQLEHAKEWRDVINTYFYRRTGIPDEKGRKIYP | not soluble
13 | MGSDKIHHHHHHMEDIIVVENLVKKFGDFEAVKGVSFSVKKGEIFAFLGPNGAGKTTTIHMLTTLLKPTSGKAWVAGHDVLKEPREVRRKIGIVFQDQSLDRELTAYENMYIHGKIYGYGGEKLKKRILELLEFVELLEFKDKPVKTFSGGMARRLEIARSLIHEPEVLFLDEPTIGLDPHTRAHMWEYISKMKKEHNMTIFLTTHYMDEAEQLADRVAIIDHGKIIALGTPTELKRMVGKEIIYVRFSEAVECLEGDFIESCRKLPDGRLELNVEDSGRAIPKIFELAQQKGLKIEEITYHKPTLNDVFLHLTGRELREEGPENSFKTMARMRMRMRR | not soluble
